“And” between values parts separate entries of the source, which are not always exact repeats. Equal entries are not always repeated.
B1: Lipase B, P41365 (parent)
chain: MKLLSLTGVAGVLATCVAATPLVKRLPSGSDPAFSQPKSVLDAGLTCQGASPSSVSKPILLVPGTGTTGPQSFDSNWIPLSTQLGYTPCWISPPPFMLNDTQVNTEYMVNAITALYAGSGNNKLPVLTWSQGGLVAQWGLTFFPSIRSKVDRLMAFAPDYKGTVLAGPLDALAVSAPSVWQQTTGSALTTALRNAGGLTQIVPTTNLYSATDEIVQPQVSNSPLDSSYLFNGKNVQAQAVCGPLFVIDHAGSLTSQFSYVVGRSALRSTTGQARSADYGITDCNPLPANDLTPEQKVAAAALLAPAAAAIVAGPKQNCEPDLMPYARPFAVGKRTCSGIVTP
B2: 3-isopropylmalate dehydrogenase, P05645 (parent)
chain: MKKRIALLPGDGIGPEVLESATDVLKSVAERFNHEFEFEYGLIGGAAIDEHHNPLPEETVAACKNADAILLGAVGGPKWDQNPSELRPEKGLLSIRKQLDLFANLRPVKVFESLSDASPLKKEYIDNVDFVIVRELTGGLYFGQPSKRYVNTEGEQEAVDTLFYKRTEIERVIREGFKMAAARKGKVTSVDKANVLESSRLWREVAEDVAQEFPDVKLEHMLVDNAAMQLIYAPNQFDVVVTENMFGDILSDEASMLTGSLGMLPSASLSSSGLHLFEPVHGSAPDIAGKGMANPFAAILSAAMLLRTSFGLEEEAKAVEDAVNKVLASGKRTRDLARSEEFSSTQAITEEVKAAIMSENTISNV
B3: Tissue-type plasminogen activator, P00750 (parent)
chain: MDAMKRGLCCVLLLCGAVFVSPSQEIHARFRRGARSYQVICRDEKTQMIYQQHQSWLRPVLRSNRVEYCWCNSGRAQCHSVPVKSCSEPRCFNGGTCQQALYFSDFVCQCPEGFAGKCCEIDTRATCYEDQGISYRGTWSTAESGAECTNWNSSALAQKPYSGRRPDAIRLGLGNHNYCRNPDRDSKPWCYVFKAGKYSSEFCSTPACSEGNSDCYFGNGSAYRGTHSLTESGASCLPWNSMILIGKVYTAQNPSAQALGLGKHNYCRNPDGDAKPWCHVLKNRRLTWEYCDVPSCSTCGLRQYSQPQFRIKGGLFADIASHPWQAAIFAKHRRSPGERFLCGGILISSCWILSAAHCFQERFPPHHLTVILGRTYRVVPGEEEQKFEVEKYIVHKEFDDDTYDNDIALLQLKSDSSRCAQESSVVRTVCLPPADLQLPDWTECELSGYGKHEALSPFYSERLKEAHVRLYPSSRCTSQHLLNRTVTDNMLCAGDTRSGGPQANLHDACQGDSGGPLVCLNDGRMTLVGIISWGLGCGQKDVPGVYTKVTNYLDWIRDNMRP
B4: Gamma-crystallin S, P22914 (parent)
chain: MSKTGTKITFYEDKNFQGRRYDCDCDCADFHTYLSRCNSIKVEGGTWAVYERPNFAGYMYILPQGEYPEYQRWMGLNDRLSSCRAVHLPSGGQYKIQIFEKGDFSGQMYETTEDCPSIMEQFHMREIHSCKVLEGVWIFYELPNYRGRQYLLDKKEYRKPIDWGAASPAVQSFRRIVE
B5: Decorsin, P17350 (parent)
chain: APRLPQCQGDDQEKCLCNKDECPPGQCRFPRGDADPYCE
B6: Subtilisin BPN', P00782 (parent)
chain: MRGKKVWISLLFALALIFTMAFGSTSSAQAAGKSNGEKKYIVGFKQTMSTMSAAKKKDVISEKGGKVQKQFKYVDAASATLNEKAVKELKKDPSVAYVEEDHVAHAYAQSVPYGVSQIKAPALHSQGYTGSNVKVAVIDSGIDSSHPDLKVAGGASMVPSETNPFQDNNSHGTHVAGTVAALNNSIGVLGVAPSASLYAVKVLGADGSGQYSWIINGIEWAIANNMDVINMSLGGPSGSAALKAAVDKAVASGVVVVAAAGNEGTSGSSSTVGYPGKYPSVIAVGAVDSSNQRASFSSVGPELDVMAPGVSIQSTLPGNKYGAYNGTSMASPHVAGAAALILSKHPNWTNTQVRSSLENTTTKLGDSFYYGKGLINVQAAAQ

Variants of: B1
Conditions: Pseudozyma antarctica; pH 7; Thermal; CD; Tris-HCl 50 mM; reversible: No; structure 1TCA; whole UniProt chain shown

Compared with V235I A306E, V246D is higher in Tm: 52.1 °C for the first, 55.7 °C for the second.

V235I showed a Tm of 58.5 °C.

First: V235I A306E
Second: V246D
The “change of melting temperature, mutant - wild type (higher = more stable)” value (from here on “change of melting temperature, mutant”) of the first is lower: -5.6 °C for the first, -2 °C for the second.

In the case of V235I, the “change of melting temperature, mutant” value is reported as 0.8 °C.

Same assay, conditions: Pseudozyma antarctica; pH 7; Thermal; Differential Scanning Fluorimetry; HEPES 10mM; structure 1TCA; whole UniProt chain shown

Compared with Q181C L188C, A187C K333C is higher in Tm: 46.1 °C for the first, 55.9 °C for the second.

With N194C F329C the Tm was 56.3 °C.

First: Q181C L188C
Second: A187C K333C
The “change of melting temperature, mutant” value of the first is lower: -8.7 °C for the first, 1.1 °C for the second.

In the case of N194C F329C, the “change of melting temperature, mutant” value is reported as 1.5 °C.

Variants of: B2
Conditions: Bacillus subtilis (strain 168); pH 7.6; Thermal; CD; potassium phosphate 20 mM; reversible: No; whole UniProt chain shown

M256I and M256L are the same in “change of melting temperature, mutant” value: 0 °C for the first, 0 °C for the second.

First: M256F
Second: M256V
The “change of melting temperature, mutant” value of the first is lower: -12.5 °C for the first, 2.5 °C for the second.

For M256A, the “change of melting temperature, mutant” value was 7 °C.

Same assay, conditions: Bacillus subtilis (strain 168); pH 7.6; Thermal; CD; Potassium phosphate 20 mM; reversible: yes; whole UniProt chain shown

Going from I95L M292I T308I to I95L T308I, the Tm falls from 70 °C to 66 °C.

Variants of: B3
Conditions: Homo sapiens; pH 4.5; Thermal; CD; Unknown; structure 1PK2; whole UniProt chain shown

First: H264Y R268G
Second: H264Y
The unfolding free energy of the first is higher: 3.4 kcal/mol for the first, 2.9 kcal/mol for the second.

Same assay, conditions: Homo sapiens; pH 7.4; Thermal; DSC; sodium Phosphate 10 mM; structure 1PML; whole UniProt chain shown

First: W277H
Second: W277Y
The Tm of the first is lower: 56.6 °C for the first, 63.3 °C for the second.

With W277F the Tm was 58.5 °C.

First: W277H
Second: W277Y
The “change of melting temperature, mutant” value of the first is lower: -19 °C for the first, -12.3 °C for the second.

For W277F, the “change of melting temperature, mutant” value was -17.1 °C.

Compared with W277H, W277Y is lower in “unfolding enthalpy (calorimetric)” value: 56 kcal/mol for the first, 45 kcal/mol for the second.

For W277F, the “unfolding enthalpy (calorimetric)” value was 40 kcal/mol.

Variants of: B4
Conditions: Homo sapiens; pH 7.4; Thermal; Fluorescence; Disodium phosphate; NaCl; structure 6FD8; whole UniProt chain shown

In the case of S39C, the Tm is reported as 61.3 °C and 58.8 °C.

With S39C the “change of melting temperature, mutant” value was -6.2 °C and -7 °C.

Variants of: B5
Conditions: Macrobdella decora; pH 7; Thermal; CD; Na2HPO4 10 mM; reversible: Yes; structure 1DEC; whole UniProt chain shown

Compared with P23A P24A, P23A is higher in Tm: 50 °C for the first, 66.5 °C for the second.

P24A showed a Tm of 66.5 °C.

First: P23A P24A
Second: P23A
The “change of melting temperature, mutant” value of the first is lower: -24 °C for the first, -7.5 °C for the second.

In the case of P24A, the “change of melting temperature, mutant” value is reported as -7.5 °C.

Variants of: B6
Conditions: Bacillus amyloliquefaciens; pH 7.5; Thermal; fluorescence; Pipes 10 mM; transition: 2; structure 1AK9; whole UniProt chain shown

With T173M G209D the Tm was 56.3 °C.

In the case of T173M G209D, the “change of melting temperature, mutant” value is reported as -0.5 °C.

With T173M G209D the “unfolding enthalpy (calorimetric)” value was 72.8 kcal/mol.

Same assay, conditions: Bacillus amyloliquefaciens; pH 8; Thermal; DSC; Tris-HCl 50 mM; KCl 50 mM; structure 1SUP; whole UniProt chain shown

With T129C the Tm was 56.4 °C.

With T129C the “change of melting temperature, mutant” value was -2.5 °C.

Same assay, conditions: Bacillus amyloliquefaciens; pH 5; 20 °C; Thermal; DSC; Sodium acetate 100 mM; reversible: yes; structure 1SUP; whole UniProt chain shown

Going from K87E to E62Q K87E, the “ddG of mutation (higher = less stable)” value rises from 1 kcal/mol to 1.3 kcal/mol.

First: K87E
Second: E62Q K87E
The unfolding free energy of the first is higher: 1.1 kcal/mol for the first, 0.8 kcal/mol for the second.

Reference: FireProtDB
